Measured values: US20240254458A1

Molecular target: LexA408-DBD-iLight V464L-msfGFP (E. coli; Idiomarina sp.)
Test: cell-based or functional assay

LexA408-DBD-iLight V464L-msfGFP gave an inhibition efficiency of the gene expression (mCherry reporter, E. coli, 660 nm) of 1.6 fold.
